Consider 35 variants from the supplement of paper PMC7125110.

± gives the standard error. Variants at the floor of the assay were thinned out.

B1: glmS ribozyme (parent)
chain: AUAAAAGCGCCAGAACUACAGAAAUGUAGUUGACGAGGAGGAGGUUUAUCGAAUUUUCGGCGGAUGCCUCCAAA

In this data set the parent is B1. Kind of data set: self-cleavage kobs at 10000 uM GlcN6P; higher = faster cleavage; RNA array. The note with it: with glucosamine-6-phosphate. The essentials:
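Tracking of barcoded ribozyme variants used a hybridised Cy3 probe at 37 °C, after in situ transcription by E. coli RNA polymerase on sequenced MiSeq chips. The flowed solution held 40 μM to 10 mM glucosamine-6-phosphate in HEPES/KCl/Mg(OAc)2 buffer, and imaging ran over ~14 h. kobs was taken from exponential decay fits of normalised per-tile medians, and kcat and KM from weighted Michaelis–Menten fits.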
On to AUAAAAGCGCCGGAACUACAGAAAUGUAGAUGAUGAGGAGGAGGGUUAUCGAAUUUUCGGCGGAUGACUCCAAA [A12G U30A C34U U45G C67A], for which the “self-cleavage kobs at 10000 uM GlcN6P” value was below 1e-05 s⁻¹.
Under AUAAAAGCGCCAGUACUACAGAAAUGUAGAUGACGAGGACGAGGUUUAUCGAAUUUUCGGCGGAUGCCUCCAAA [A14U U30A G40C] stands 5.69e-05 ± 1.4e-05 s⁻¹; under AUAAAAGCGCCAGAGCUACAGAAAUGUAGUUGACGAGGAGGAGGUUUAUCGAAUUUUCGGCGGAUCCUUCCAAA [A15G G66C C68U], 0.000127 ± 2.6e-05 s⁻¹.
Under AUAAAAGCGCCAGAACUACAGAAAUGUAGUUGCCGAGGAGGAGGCUUAUCGAAUUUUCGGCGGACGCCUCCAAA [A33C U45C U65C] stands below 1e-05 s⁻¹; under AUAAAAGCGCUUGAACUACAGAAAUGUAGUUGACGAGGAGGAGGUGUAUCGAAUUUUCGGCGGAUGCCUUCAAA [C11U A12U U46G C70U], 0.000953 ± 0.00017 s⁻¹; under AUAAAAGCGCCAGAUCUACAGAAAUGUAGUUGACGAGGAGGAGUUUUAUCGAAUUUUCGGCGGUUGCCUCCAAA [A15U G44U A64U], below 1e-05 s⁻¹.
Under AUAAAAGCGCCAGAACUACAGAAAUGUAGUUGACGAGGACGAGGUUUAUCGCAUUUUCGGCGGAUGCCUCCAAA [G40C A52C] stands below 1e-05 s⁻¹; under AUAAAAGCGCCAGAACUACAGAAAUGUAAUUGACGAGGACGAGAUUUAUCGAAUUUUCGGCGGAUGCCUCCAAA [G29A G40C G44A], below 1e-05 s⁻¹; under AUAAAAGCGCCAGAACUACAGAAAUGUAGUUGACGACGAGGAGGUUUAUCGAAGUUUCGGCGGAUGCCUCCAAA [G37C U54G], 3.98e-05 ± 8.6e-06 s⁻¹.
As to AUAAAAGCGCCAGACCUACAGAAAUGUACUUGACGAGGAGGAGGUUUAUCGAAUUUUCAGCGGAAGCCUCCAAA [A15C G29C G59A U65A], the “self-cleavage kobs at 10000 uM GlcN6P” value is below 1e-05 s⁻¹.
The same measure for AUAAAAGCGCCAGAACUACAGAAAUGUAGUUGACGAGAAGGUGGUUUAUGGAAUUUUCGGCGGAUGGCUCCAAA [G38A A42U C50G C67G]: 0.000231 ± 6.8e-05 s⁻¹; for AUAAAAGCGCUAGAACUACAGAAAUGUAGUUUACGAGGAGGAGGUUUAUCGAAUUUUCGGGGGAUGCCCCCAAA [C11U G32U C61G U69C]: 0.00014 ± 3.4e-05 s⁻¹; for AUAAAAGCGCGAGAACUACAGAAAUGUAGUUGACGAGGAGGAGGUUUAUCGAAUUUUCGGCGGCUGGCUCCAAA [C11G A64C C67G]: below 1e-05 s⁻¹.
In the case of AUAAAAGCGCCAGAACUACAGAAAUGUAGUUGACGAGGAAGAGGUUUAUCGAGUUUUCGGCGGAUGCCUACAAA [G40A A53G C70A], the “self-cleavage kobs at 10000 uM GlcN6P” value stood at 0.000157 ± 3.7e-05 s⁻¹.
Take AUAAAAGCGCUAGAUCUACAGAAAUGUAGUUGACGAGGAGGUGGUUUAUCGAAUUUUCGGCGGAUGCCUCCAAA [C11U A15U A42U]: the “self-cleavage kobs at 10000 uM GlcN6P” value is below 1e-05 s⁻¹.
For the variant AUAAAAGCACCAGAACUACAGAAAUGUAGUUGCCGAGGAGGAGGUUUAUGGGAUUUUCUGCGGAUGCCUCAAAA [G9A A33C C50G A52G G59U C71A], the “self-cleavage kobs at 10000 uM GlcN6P” value came to 5.24e-05 ± 2e-05 s⁻¹.
The same measure for AUAAAAGCGCCAGAACUACAGAAAUGUAGUUGACGAAGAGGAUGUUUAUCGAAUGUUCGGCGGAUGCGUCCAAA [G37A G43U U55G C68G]: 0.000281 ± 7.9e-05 s⁻¹.
The same measure for AUAAAAGCGCCCGAACUACAGAAAUGUAGUUGACGAGGAGGAGGUUUAUCGAAUUUUCGUUGGAUGCCUCCAAA [A12C G60U C61U]: below 1e-05 s⁻¹.
As for AUAAAAGCGCCAGUACUACAGAAAUGUAGCUGACGAGCAGGAGGUUUAUCGAAUUUUCGGCGGAUGCCUCCAAA [A14U U30C G38C], the “self-cleavage kobs at 10000 uM GlcN6P” value was below 1e-05 s⁻¹.
Turning to AUAAAAGCGCCAGUACUACAGAAAUGUAGUUGACGAGGACGAGGUUUAUCGAAUUAUCGGCGGGUGCCUCCAAA [A14U G40C U56A A64G], the “self-cleavage kobs at 10000 uM GlcN6P” value was determined as 8.64e-05 ± 2.9e-05 s⁻¹.
Under AUAAAAGCCCCAGAACUACAGAAAUGUAGUUGACGCGGAGGAAGUUAAUCGAAUUUUCGGCGGAUGCCUCCAAA [G9C A36C G43A U47A] stands below 1e-05 s⁻¹; under AUAAAAGCGUCAGAACUACAGAAAUGUAGUUGACGAGGCGGAGGUUUAUCGAAUUUUCGGUGGAUGCGUCCAAA [C10U A39C C61U C68G], below 1e-05 s⁻¹.
Turning to AUAAAAGCGCCAGAACUACAGAAAUGUAGUCGACGAGGCUGAGGUUUAUCGAAUUUUCGUCGGAUGCCUCCAAA [U31C A39C G40U G60U], the “self-cleavage kobs at 10000 uM GlcN6P” value was below 1e-05 s⁻¹.
The same measure for AUAAAAGCGUCAGAACUACAGAAAUGUAGUUGACGAGGAGGAGGUUUAUCGAAUUUUUCGCGGAUGCCUCCAAA [C10U C58U G59C]: below 1e-05 s⁻¹.
The same measure for AUAAAAGCCCCAGAACUACAGAAAUGUAGUUGACGAGGAGUAUGUUUAUCGAAUUUUCGGCGGAUGGCUCCAAA [G9C G41U G43U C67G]: below 1e-05 s⁻¹.
Under AUAAAAGCGCCAGCACUACAGAAAUGUAGUUAACGAGGAGGAGGUUUAUCGAAUUUUCGGCGGAUGCCGCCAAA [A14C G32A U69G] stands 7e-05 ± 1.6e-05 s⁻¹.
With AUAAAAGCGCCUGAACUACAGAAAUGUAGUUGACGAGGAGGAGGUUUAUGGCAUUUUCGGCGGAUGCCUGCAAA [A12U C50G A52C C70G], the “self-cleavage kobs at 10000 uM GlcN6P” value was determined as 7.94e-05 ± 2.3e-05 s⁻¹.
For the variant AUAAAAGCGCCAGAACUACAGAAAUGUAGGUGACGAGGAGGAGGUUUAGCGAAUUUUCGGCGCAUGCCUCCAAA [U30G U49G G63C], the “self-cleavage kobs at 10000 uM GlcN6P” value was below 1e-05 s⁻¹.
Under AUAAAAGCGCCAGAAUUACAGAAAUGUAGUUGGCGCGGAGGAGGUUUAUCGAAUUUGGGGCGGAUGCCUCCAAA [C16U A33G A36C U57G C58G] stands 7.07e-05 ± 2e-05 s⁻¹; under AUAAAAGCGCCAGAAUUACAGAAAUGUAGUGGACGAGGAGGAGGUUUAUCGAAUUUUCGGCGGAUGCCUACAAA [C16U U31G C70A], 8.19e-05 ± 1.7e-05 s⁻¹; under AUAAAAGCGCCAGAACUACAGAAAUGUAGUGGACGAGGAGGAGGUUUAUCGAAUUUUUGGCGGAUGCCUCCAAA [U31G C58U], 9.69e-05 ± 1.1e-05 s⁻¹.
The same measure for AUAAAAGCGCCAGAACUACAGAAAUGUAGUUGACGAGGAGGAGGUUUAACGACUUUUCGGCGUAUGCCUCGAAA [U49A A53C G63U C71G]: below 1e-05 s⁻¹.
The same measure for AUAAAAGCUCCAGAACUACAGAAAUGUAGUUGACGAGGAGGAGGUUUAUCGAAUUUUCCGCGCAUGCCUCCAAA [G9U G59C G63C]: below 1e-05 s⁻¹; for AUAAAAGCGCCAGAACUACAGAAAUGUAGUUGACGAGGAGGAGGUUGAUCGAAUUUUCGGCGGAUCCCUCCAAA [U47G G66C]: 0.000614 ± 0.00011 s⁻¹; for AUAAAAGCGCCUGAACUACAGAAAUGUAGUUGCCGAGGAGGAGGUUCAUCGAAUUUUCGGCGGAUGGCUCCAAA [A12U A33C U47C C67G]: below 1e-05 s⁻¹.
